Laboratory results taken from patent US20220220224A1 (Hoffmann-La Roche, published 2022).
Read-outs that look alike come from different tables or passages of the source.

Key:
[1] = target: T1, recombinant biotinylated monomeric Fc fusion of human Folate Receptor 1 (huFolR1 ECD-AcTev-Fcknob-Avi tag … (human, UniProt P0DOX5 223-449 = IgG part, biotin on the C-terminal Avi tag)); assay: SPR Biacore, affinity (monovalent), antibody captured via anti-Fab, steady state
T1 construct: also called huFolR1-Fc; human FolR1-Fc
Protocol: The affinity of the interaction between the anti-FolR1 IgGs or the T cell bispecifics and the recombinant folate receptors was determined as described below (Table 42).
For affinity measurement, direct coupling of around 10000 resonance units (RU) of the anti-human Fab specific antibody (Fab capture kit, GE Healthcare) was performed on a CM5 chip at pH 5.0 using the standard amine coupling kit (GE Healthcare). Anti-FolR1 IgGs or T cell bispecifics were captured at 200 nM with a flow rate of 10 ul/min for 40 sec, the reference flow cell was left without capture. Dilution series (12.35 to 3000 nM) of human Folate Receptor 1 Fc fusion were passed on all flow cells at 30 μl/min for 240 sec to record the association phase. The dissociation phase was monitored for 300 s and triggered by switching from the sample solution to HBS-EP. The chip surface was regenerated after every cycle using a double injection of 60 sec 10 mM Glycine-HCl pH 1.5. Bulk refractive index differences were corrected for by subtracting the response obtained on the reference flow cell 1. […]

[2] = target: T2, recombinant biotinylated monomeric Fc fusion of cynomolgus Folate Receptor 1 (cy FolR1 ECD-AcTev-Fcknob-Avi … (cynomolgus, UniProt P0DOX5 223-449 = IgG part, biotin on the C-terminal Avi tag)); assay: SPR Biacore, avidity (bivalent, apparent KD), antigen-Fc on SA chip
T2 construct: also called cyFolR1-Fc; cyno FolR1
Protocol: (§1) The avidity of the interaction between the anti-FolR1 IgGs or T cell bispecifics and the recombinant folate receptors was determined as described below (Table 41).
(§2) Recombinant biotinylated monomeric Fc fusions of human, cynomolgus and murine Folate Receptor 1 (FolR1-Fc) were directly coupled on a SA chip using the standard coupling instruction (Biacore, Freiburg/Germany). The immobilization level was about 300. […] The dissociation was monitored for 240 or 600 seconds. Bulk refractive index differences were corrected for by subtracting the response obtained on reference flow cell immobilized with recombinant biotinylated murine IL2 receptor Fc fusion. The binding curves resulting from the bivalent binding of the IgG or T cell bispecifics were approximated to a 1:1 Langmuir binding (even though it is a 1:2 binding) and fitted with that model to get an apparent KD representing the avidity of the bivalent binding. The apparent avidity constants for the interactions were derived from the rate constants of the fitting using the Bia Evaluation software (GE Healthcare). For low affinity kinetics with association and dissociation phases too fast to be fitted by the 1:1 Langmuir binding model, the steady state analysis model was applied using the Bia Evaluation software (GE Healthcare). The steady state analysis gives the KD of the binding reaction at equilibrium.

[3] = target: T1, recombinant biotinylated monomeric Fc …; assay: as above
Protocol: as §1, §2

[4] = target: T3, human FolR1 expressed on cells (HeLa, SKOV3, HT-29, transfected HEK cells) (human, UniProt P15328 25-234); assay: cell-based or functional assay
[5] = target: T2, recombinant biotinylated monomeric Fc …; assay: SPR Biacore, avidity (bivalent, apparent KD), antigen-Fc on SA chip; remark: listed apart in the source
[6] = target: T1, recombinant biotinylated monomeric Fc …; assay: as above; remark: listed apart in the source
[7] = target: T1, recombinant biotinylated monomeric Fc …; assay: SPR Biacore, avidity (bivalent)
[8] = target: T3, human FolR1 expressed on cells (HeLa, …); assay: cell-based or functional assay; remark: listed apart in the source
[9] = target: T1, recombinant biotinylated monomeric Fc …; assay: SPR Biacore, affinity (monovalent)
[10] = target: T2, recombinant biotinylated monomeric Fc …; assay: SPR Biacore, affinity (monovalent), antibody captured via anti-Fab, steady state analysis
Protocol: (§3) All SPR experiments were performed on a Biacore T200 at 25° C. with HBS-EP as running buffer (0.01 M HEPES pH 7.4, 0.15 M NaCl, 3 mM EDTA, 0.005% Surfactant P20, Biacore, GE Healthcare). The molecules used for affinity and avidity determination are described in Table 45.
(§4) For affinity measurement, direct coupling of around 12000 resonance units (RU) of the anti-human Fab specific antibody (Fab capture kit, GE Healthcare) was performed on a CM5 chip at pH 5.0 using the standard amine coupling kit (GE Healthcare). Anti-FolR1 T cell bispecifics were captured at 20 nM with a flow rate of 10 μl/min for 40 sec, the reference flow cell was left without capture. […] The dissociation phase was monitored for 300 s and triggered by switching from the sample solution to HBS-EP. The chip surface was regenerated after every cycle using a double injection of 60 sec 10 mM Glycine-HCl pH 2.1. Bulk refractive index differences were corrected for by subtracting the response obtained on the reference flow cell 1. The affinity constants for the interactions were derived from the rate constants by fitting to a 1:1 Langmuir binding using the Bia Evaluation software (GE Healthcare). For low affinity kinetics with association and dissociation phases too fast to be fitted by the 1:1 Langmuir binding model, the steady state analysis model was applied using the Bia Evaluation software (GE Healthcare). The steady state analysis gives the KD of the binding reaction at equilibrium.

[11] = target: T1, recombinant biotinylated monomeric Fc …; assay: as above
Protocol: as §3, §4

[12] = target: T4, recombinant biotinylated monomeric Fc fusion of murine Folate Receptor 1 (mu FolR1 ECD-AcTev-Fcknob-Avitag … (murine, UniProt P0DOX5 223-449 = IgG part, biotin on the C-terminal Avi tag)); assay: SPR Biacore, single injection on immobilized antigen-Fc
T4 construct: also called muFolR1-Fc; murine FolR1
Protocol: as §3
(§5) First the anti-FolR1 TCBs were analyzed by single injections (Table 46) to characterize their crossreactivity (to human, murine and cyno FolR1) and specificity (to human FolR1, human FolR2, human FolR3). Recombinant biotinylated monomeric Fc fusions of human, cynomolgus and murine Folate Receptor 1 (FolR1-Fc) or human Folate Receptor 2 and 3 (FolR2-Fc, FolR3-Fc) were directly coupled on a SA chip using the standard coupling instruction (Biacore, Freiburg/Germany). The immobilization level was about 300-400 RU. The TCBs were injected for 60 seconds at a concentration of 500 nM.

[13] = target: T5, recombinant biotinylated monomeric Fc fusion of human Folate Receptor 3 (hu FolR3 ECD-AcTev-Fcknob-Avi tag … (human, UniProt P0DOX5 223-449 = IgG part, biotin on the C-terminal Avi tag)); assay: as above
T5 construct: also called FolR3-Fc
Protocol: as §3, §5

[14] = target: T6, recombinant biotinylated monomeric Fc fusion of human Folate Receptor 2 (hu FolR2 ECD-AcTev-Fcknob-Avi tag … (human, UniProt P0DOX5 223-449 = IgG part, biotin on the C-terminal Avi tag)); assay: as above
T6 construct: also called FolR2-Fc
Protocol: as §3, §5

T3 sequence (P15328 25-234): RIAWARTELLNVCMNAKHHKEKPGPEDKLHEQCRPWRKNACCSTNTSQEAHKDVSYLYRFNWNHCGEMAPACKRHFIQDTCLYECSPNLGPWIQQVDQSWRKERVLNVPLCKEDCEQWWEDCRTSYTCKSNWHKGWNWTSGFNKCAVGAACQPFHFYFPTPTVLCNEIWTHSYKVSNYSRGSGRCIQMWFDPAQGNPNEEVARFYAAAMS

B1: 16D5 IgG variant W98Y/wt (HC/LC) (antibody, V domains shown)
VH: not shown
VL: QAVVTQEPSLTVSPGGTVTLTCGSSTGAVTTSNYANWVQEKPGQAFRGLIGGTNKRAPGTPARFSGSLLGGKAALTLSGAQPEDEAEYYCALWYSNLWVFGGGTKLTVL
notes: IgG
In the case of B1, the Kd [1] is reported as 5400 nM, the Kd [2] is reported as 200 nM and the koff [2] is reported as 0.0361 s⁻¹. It also gave a kon [2] of 171000 M⁻¹ s⁻¹, a Kd [3] of 240 nM and a koff [3] of 0.0328 s⁻¹. The kon [3] was 136000 M⁻¹ s⁻¹.

B2: 16D5 W96Y/D52E TCB (2+1 inverted, common light chain) (bispecific antibody)
heavy 1: not shown
heavy 2: not shown
light: QAVVTQEPSLTVSPGGTVTLTCGSSTGAVTTSNYANWVQEKPGQAFRGLIGGTNKRAPGTPARFSGSLLGGKAALTLSGAQPEDEAEYYCALWYSNLWVFGGGTKLTVLGQPKAAPSVTLFPPSSEELQANKATLVCLISDFYPGAVTVAWKADSSPVKAGVETTTPSKQSNNKYAASSYLSLTPEQWKSHRSYSCQVTHEGSTVEKTVAPTECS
In the case of B2, the “EC50 of T-cell killing of HT-29, 48 h” value [4] is reported as 0.399 nM, the “EC50 of T-cell killing of Hela, 48 h” value [4] is reported as 0.0009 nM and the “EC50 of T-cell killing of SKov-3, 48 h” value [4] is reported as 0.093 nM. The Kd [5] was 30 nM, the koff [5] was 0.0141 s⁻¹ and the kon [5] was 517000 M⁻¹ s⁻¹. It also gave a Kd [6] of 10 nM, a koff [6] of 0.0014 s⁻¹ and a kon [6] of 124000 M⁻¹ s⁻¹. For the same binder, the “fold lower avidity than 16D5 WT (3 nM)” value [7] was 3 fold, the “EC50 of T-cell killing of Hela, 24 h” value [8] was 0.0013 nM and the “EC50 of T-cell killing of SKov-3, 24 h” value [8] was 0.235 nM. The “fold lower affinity than 16D5 WT (57 nM)” value [9] was 24.5 fold, the Kd [10] was 5600 nM and the Kd [11] was 1400 nM. B2: no binding (tested: 500 nM) [12]; no binding (tested: 500 nM) [13]; no binding (tested: 500 nM) [14].
